Earlier results as cited in PMC5356237.

Target: HER3 (Homo sapiens) (UniProt P21860)
Sequence of UniProt P21860 (P21860 20-1342): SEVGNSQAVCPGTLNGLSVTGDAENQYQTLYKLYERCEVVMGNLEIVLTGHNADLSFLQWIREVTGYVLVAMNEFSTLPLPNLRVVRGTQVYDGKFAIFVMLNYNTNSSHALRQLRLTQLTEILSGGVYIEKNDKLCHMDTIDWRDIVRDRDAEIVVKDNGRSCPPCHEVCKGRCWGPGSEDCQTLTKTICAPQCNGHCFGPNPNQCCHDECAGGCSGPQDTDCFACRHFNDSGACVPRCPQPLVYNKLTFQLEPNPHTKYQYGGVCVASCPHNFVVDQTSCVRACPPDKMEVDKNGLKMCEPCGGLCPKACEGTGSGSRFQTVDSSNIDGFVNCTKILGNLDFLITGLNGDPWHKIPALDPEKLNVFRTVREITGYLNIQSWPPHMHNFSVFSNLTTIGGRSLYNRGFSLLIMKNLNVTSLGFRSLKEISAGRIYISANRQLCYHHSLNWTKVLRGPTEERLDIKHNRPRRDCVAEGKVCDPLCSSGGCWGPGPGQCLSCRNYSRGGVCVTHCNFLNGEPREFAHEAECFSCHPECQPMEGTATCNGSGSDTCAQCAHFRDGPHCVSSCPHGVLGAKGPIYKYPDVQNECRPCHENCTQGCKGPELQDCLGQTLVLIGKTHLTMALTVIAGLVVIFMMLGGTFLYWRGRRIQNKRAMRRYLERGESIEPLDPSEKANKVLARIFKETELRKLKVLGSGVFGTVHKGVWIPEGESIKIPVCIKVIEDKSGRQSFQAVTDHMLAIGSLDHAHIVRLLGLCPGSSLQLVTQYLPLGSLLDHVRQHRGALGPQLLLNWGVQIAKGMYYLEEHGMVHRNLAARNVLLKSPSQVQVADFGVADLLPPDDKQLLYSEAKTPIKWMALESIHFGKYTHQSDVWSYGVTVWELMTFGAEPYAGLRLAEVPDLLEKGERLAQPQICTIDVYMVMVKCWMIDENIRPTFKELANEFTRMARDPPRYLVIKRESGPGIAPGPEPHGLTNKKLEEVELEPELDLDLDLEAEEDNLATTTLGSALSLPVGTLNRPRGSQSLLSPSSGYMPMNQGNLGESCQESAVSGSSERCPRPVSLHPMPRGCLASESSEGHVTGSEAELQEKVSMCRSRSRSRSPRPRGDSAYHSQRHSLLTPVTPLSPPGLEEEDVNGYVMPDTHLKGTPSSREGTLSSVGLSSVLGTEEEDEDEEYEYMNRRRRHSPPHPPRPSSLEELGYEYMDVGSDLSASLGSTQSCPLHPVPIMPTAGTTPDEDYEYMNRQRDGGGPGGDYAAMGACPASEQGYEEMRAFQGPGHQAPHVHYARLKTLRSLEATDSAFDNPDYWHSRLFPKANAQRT

Kd: 0.1 nM
Substance: NRG1b (from UniProt Q02297)
